Test results taken from the Human Domainome abundance scans (Beltran et al. 2025).
± gives the uncertainty stated by the source.

B1: Ankyrin-1, residues 1405 to 1484; numbered along this chain, P16157 (parent)
chain: MKMAVISEHLGLSWAELARELQFSVEDINRIRVENPNSLLEQSVALLNLWVIREGQNANMENLYTALQSIDRGEIVNMLE

Variants of: B1
Assay: abundance fitness (aPCA) (normalised: wild type 0, dead -1); higher = more abundant; growth selection in yeast, the domain comes from the species named
Conditions: Homo sapiens

Compared with A66V, A66Y is higher in abundance fitness: -0.749 ± 0.097 for the first, -0.494 ± 0.11 for the second.

First: V5Y
Second: V5D
The abundance fitness of the first is higher: 0.086 ± 0.091 for the first, -0.605 ± 0.14 for the second.

Going from V5A to V5N, the abundance fitness falls from -0.231 ± 0.06 to -0.606 ± 0.24.

M1V and S13N are within error of each other in abundance fitness: 0 ± 0.27 for the first, -0.404 ± 0.18 for the second.

Compared with S13A, S13V is lower in abundance fitness: -0.021 ± 0.11 for the first, -0.5 ± 0.049 for the second.

S13C and S13M are within error of each other in abundance fitness: -0.577 ± 0.12 for the first, -0.441 ± 0.2 for the second.

A45Y and A45P are within error of each other in abundance fitness: -0.565 ± 0.15 for the first, -0.77 ± 0.28 for the second.

First: A45C
Second: G73M
The abundance fitness of the first is higher: -0.259 ± 0.034 for the first, -0.396 ± 0.085 for the second.

G73P and G73V are within error of each other in abundance fitness: -0.205 ± 0.058 for the first, -0.172 ± 0.038 for the second.

Going from G73D to G73E, the abundance fitness rises from -0.491 ± 0.11 to -0.24 ± 0.064.

Compared with G73I, V33D is higher in abundance fitness: -0.486 ± 0.13 for the first, -0.031 ± 0.14 for the second.

V33F and V33H are within error of each other in abundance fitness: 0.021 ± 0.12 for the first, -0.043 ± 0.049 for the second.

I75D and I75M are within error of each other in abundance fitness: -0.54 ± 0.39 for the first, -0.256 ± 0.17 for the second.

I75W and I75F are within error of each other in abundance fitness: -0.663 ± 0.17 for the first, -0.785 ± 0.45 for the second.

I75R and I75C are within error of each other in abundance fitness: -0.915 ± 0.14 for the first, -0.734 ± 0.23 for the second.

Going from E8C to E8R, the abundance fitness rises from -0.624 ± 0.18 to -0.054 ± 0.052.

E8Q and E26N are within error of each other in abundance fitness: 0.067 ± 0.17 for the first, 0.016 ± 0.15 for the second.

E26H and E26T are within error of each other in abundance fitness: -0.113 ± 0.2 for the first, 0.023 ± 0.094 for the second.

E26Y and Q68W are within error of each other in abundance fitness: 0.064 ± 0.15 for the first, -0.146 ± 0.071 for the second.

Q68R and Q68I are within error of each other in abundance fitness: -0.038 ± 0.05 for the first, -0.097 ± 0.12 for the second.

Q68N and Q68K are within error of each other in abundance fitness: 0.003 ± 0.13 for the first, 0.169 ± 0.14 for the second.

Q68H and E74I are within error of each other in abundance fitness: -0.029 ± 0.24 for the first, -0.105 ± 0.19 for the second.

E74F and E74C are within error of each other in abundance fitness: -0.741 ± 0.28 for the first, -0.469 ± 0.16 for the second.

First: N29Y
Second: N29S
The abundance fitness of the first is lower: -0.484 ± 0.16 for the first, -0.156 ± 0.062 for the second.

First: N29K
Second: N29H
The abundance fitness of the first is higher: 0.021 ± 0.1 for the first, -0.37 ± 0.2 for the second.

N29W and L79I are within error of each other in abundance fitness: -0.148 ± 0.051 for the first, -0.019 ± 0.11 for the second.

L79S and L79A are within error of each other in abundance fitness: 0.014 ± 0.052 for the first, 0.002 ± 0.064 for the second.

Going from L79T to L79C, the abundance fitness rises from -0.202 ± 0.096 to 0.045 ± 0.13.

L79P and L79D are within error of each other in abundance fitness: -0.3 ± 0.12 for the first, -0.54 ± 0.32 for the second.

First: L79H
Second: S69C
The abundance fitness of the first is lower: -0.199 ± 0.15 for the first, 0.056 ± 0.095 for the second.

First: S69W
Second: W50E
The abundance fitness of the first is higher: -0.291 ± 0.08 for the first, -0.834 ± 0.23 for the second.

W50F and W50R are within error of each other in abundance fitness: -0.713 ± 0.28 for the first, -0.863 ± 0.12 for the second.

W50S and I70W are within error of each other in abundance fitness: -0.734 ± 0.14 for the first, -0.99 ± 0.28 for the second.

I70T and I70R are within error of each other in abundance fitness: -0.651 ± 0.14 for the first, -0.437 ± 0.078 for the second.

I70A and L17A are within error of each other in abundance fitness: -0.808 ± 0.16 for the first, -0.607 ± 0.12 for the second.

L17G and L17C are within error of each other in abundance fitness: -0.972 ± 0.12 for the first, -0.81 ± 0.2 for the second.

L17P and L47D are within error of each other in abundance fitness: -0.881 ± 0.23 for the first, -0.743 ± 0.23 for the second.

L47I and L47C are within error of each other in abundance fitness: -0.256 ± 0.2 for the first, -0.061 ± 0.083 for the second.

L47T and I28R are within error of each other in abundance fitness: -0.628 ± 0.15 for the first, -0.571 ± 0.071 for the second.

Compared with I28V, I28S is lower in abundance fitness: -0.1 ± 0.051 for the first, -0.797 ± 0.11 for the second.

I28L and I28M are within error of each other in abundance fitness: -0.529 ± 0.083 for the first, -0.341 ± 0.13 for the second.

I28A gave an abundance fitness of -0.522 ± 0.066.
